Laboratory results taken from publication PMC12505888, “Inhibitory activities of monoclonal antibodies against Staphylococcus aureus clumping factor A” (mBio, 2025).

Assays:
[1] = target: A domain of S. aureus Newman ClfA (clumping factor A), residues 40-559 (Staphylococcus aureus Newman) (UniProt Q53653); test: ELISA; ClfA-A Newman immobilised (100 ng per well); serial dilutions of human complement factor I (20 μg/mL); detected with rabbit anti-factor I polyclonal antibody and anti-rabbit HRP
[2] = target: A domain of ClfA from S. aureus strain N315 (Staphylococcus aureus N315) (UniProt Q99VJ4); test: ELISA; ClfA-A proteins immobilised (100 ng per well, carbonate/bicarbonate buffer pH 9.6, 4°C overnight); serial dilutions of soluble human fibrinogen (4 mg/mL) in PBS; bound fibrinogen detected with anti-human fibrinogen-HRP, A450
[3] = target: A domain of ClfA from S. aureus strain USA300 LAC (Staphylococcus aureus USA300 LAC); test: as above
[4] = target: A domain of ClfA from S. aureus strain WU1 (Staphylococcus aureus WU1); test: as above
[5] = target: Human von Willebrand factor (human) (UniProt P04275); test: ELISA; human vWF immobilised; vWbp with ClfA-A carrying only His tag added to the reaction; bound vWbp assessed with anti-StrepII antibody
[6] = target: Human von Willebrand factor (human) (UniProt P04275); test: ELISA; human vWF immobilised (100 ng per well); serial dilutions of recombinant ClfA-A (20 μg/mL) or recombinant vWbp (5 μg/mL); detected with anti-StrepII or anti-His HRP antibody
[7] = target: T1, A domain of S. aureus Newman ClfA (clumping factor A), residues 40-559 (Staphylococcus aureus Newman, UniProt Q53653 40-559); test: ELISA; ClfA-A proteins immobilised (100 ng per well, carbonate/bicarbonate buffer pH 9.6, 4°C overnight); serial dilutions of soluble human fibrinogen (4 mg/mL) in PBS; bound fibrinogen detected with anti-human fibrinogen-HRP, A450; details: both partners purified
T1 construct: Cloned in pET15b (NdeI/BamHI); also called ClfA-A; ClfA-A Newman; source: E. coli BL21, purified (Ni-NTA resin followed by Streptactin resin); not shown: His6, N-terminal, kept
T1 sequence: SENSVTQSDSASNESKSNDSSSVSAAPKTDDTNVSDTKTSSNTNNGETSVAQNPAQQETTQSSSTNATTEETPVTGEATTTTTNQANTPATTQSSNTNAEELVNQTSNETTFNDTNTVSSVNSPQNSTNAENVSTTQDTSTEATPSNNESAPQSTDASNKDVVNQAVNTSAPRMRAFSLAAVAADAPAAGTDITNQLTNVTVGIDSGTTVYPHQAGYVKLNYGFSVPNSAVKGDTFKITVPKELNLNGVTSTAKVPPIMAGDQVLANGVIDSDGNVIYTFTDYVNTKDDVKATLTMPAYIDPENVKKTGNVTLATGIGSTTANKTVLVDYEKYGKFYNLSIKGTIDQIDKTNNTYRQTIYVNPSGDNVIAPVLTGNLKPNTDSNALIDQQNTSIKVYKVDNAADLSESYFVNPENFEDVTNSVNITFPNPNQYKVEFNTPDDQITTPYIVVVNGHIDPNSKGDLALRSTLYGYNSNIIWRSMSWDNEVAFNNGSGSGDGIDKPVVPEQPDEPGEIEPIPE

Molecule: Human complement factor I (enzyme)
- EC50 [1]: 1800 nM

Molecule: Human fibrinogen (from UniProt P02671-2 20-644; P02675 31-491; P02679-2 27-437) (complex)
- EC50 [2]: 1300 nM
- EC50 [3]: 1000 nM
- EC50 [4]: 1100 nM

Molecule: vWbp + ClfA-A Newman (from UniProt Q53653 40-559) (complex)
- EC50 [5]: 3.5 µM

Molecule: von Willebrand binding protein (vWbp) of S. aureus Newman, recombinant (natural protein)
- EC50 [6]: 14.5 µM

B1: Human fibrinogen (complex)
chain 1: ADSGEGDFLAEGGGVRGPRVVERHQSACKDSDWPFCSDEDWNYKCPSGCRMKGLIDEVNQDFTNRINKLKNSLFEYQKNNKDSHSLTTNIMEILRGDFSSANNRDNTYNRVSEDLRSRIEVLKRKVIEKVQHIQLLQKNVRAQLVDMKRLEVDIDIKIRSCRGSCSRALAREVDLKDYEDQQKQLEQVIAKDLLPSRDRQHLPLIKMKPVPDLVPGNFKSQLQKVPPEWKALTDMPQMRMELERPGGNEITRGGSTSYGTGSETESPRNPSSAGSWNSGSSGPGSTGNRNPGSSGTGGTATWKPGSSGPGSTGSWNSGSSGTGSTGNQNPGSPRPGSTGTWNPGSSERGSAGHWTSESSVSGSTGQWHSESGSFRPDSPGSGNARPNNPDWGTFEEVSGNVSPGTRREYHTEKLVTSKGDKELRTGKEKVTSGSTTTTRRSCSKTVTKTVIGPDGHKEVTKEVVTSEDGSDCPEAMDLGTLSGIGTLDGFRHRHPDEAAFFDTASTGKTFPGFFSPMLGEFVSETESRGSESGIFTNTKESSSHHPGIAEFPSRGKSSSYSKQFTSSTSYNRGDSTFESKSYKMADEAGSEADHEGTHSTKRGHAKSRPVRGIHTSPLGKPSLSP
chain 2: QGVNDNEEGFFSARGHRPLDKKREEAPSLRPAPPPISGGGYRARPAKAAATQKKVERKAPDAGGCLHADPDLGVLCPTGCQLQEALLQQERPIRNSVDELNNNVEAVSQTSSSSFQYMYLLKDLWQKRQKQVKDNENVVNEYSSELEKHQLYIDETVNSNIPTNLRVLRSILENLRSKIQKLESDVSAQMEYCRTPCTVSCNIPVVSGKECEEIIRKGGETSEMYLIQPDSSVKPYRVYCDMNTENGGWTVIQNRQDGSVDFGRKWDPYKQGFGNVATNTDGKNYCGLPGEYWLGNDKISQLTRMGPTELLIEMEDWKGDKVKAHYGGFTVQNEANKYQISVNKYRGTAGNALMDGASQLMGENRTMTIHNGMFFSTYDRDNDGWLTSDPRKQCSKEDGGGWWYNRCHAANPNGRYYWGGQYTWDMAKHGTDDGVVWMNWKGSWYSMRKMSMKIRPFFPQQ
chain 3: YVATRDNCCILDERFGSYCPTTCGIADFLSTYQTKVDKDLQSLEDILHQVENKTSEVKQLIKAIQLTYNPDESSKPNMIDAATLKSRKMLEEIMKYEASILTHDSSIRYLQEIYNSNNQKIVNLKEKVAQLEAQCQEPCKDTVQIHDITGKDCQDIANKGAKQSGLYFIKPLKANQQFLVYCEIDGSGNGWTVFQKRLDGSVDFKKNWIQYKEGFGHLSPTGTTEFWLGNEKIHLISTQSAIPYALRVELEDWNGRTSTADYAMFKVGPEADKYRLTYAYFAGGDAGDAFDGFDFGDDPSDKFFTSHNGMQFSTWDNDNDKFEGNCAEQDGSGWWMNKCHAGHLNGVYYQGGTYSKASTPNGYDNGIIWATWKTRWYSMKKTTMKIIPFNRLTIGEGQQHHLGGAKQAGDV
notes: Fibrinogen A-alpha chain, human; Fibrinogen B-beta chain, human; Fibrinogen gamma chain, human; also called Fg; source: bought: Sigma; copies: 2 + 2 + 2
- EC50 [7]: 1300 nM
